Experimental data from article PMC5673899, “Structural basis for receptor recognition of pollen tube attraction peptides” (Nature Communications, 2017).
Entries after “also recorded” stand apart in the source; their conditions may differ.

Tests used:
AtPRK3^LRR = assay: Gel filtration assay with AtPRK3^LRR; format: binding, Arabidopsis; settings: 4 °C 30 min, 10 mM Bis-Tris pH 6.0, 100 mM NaCl
From the text: (§1) The genes of AtPRK3 ^LRR (residues 1–241), AtPRK4 ^LRR (residues 1–277), AtPRK5 ^LRR (residues 1–279), AtPRK6 ^LRR (residues 1–262), MIK1 ^LRR (residues 1–633), MIK2 ^LRR (residues 1–707) were amplified from Arabidopsis cDNA library by PCR and cloned into pFastBac-1 vector with a C-terminal 6 × His-tag. Their identities were confirmed by sequencing. The mature form of AtLURE1.1 (residues 20–94), AtLURE1.2 (residues 20–90), AtLURE1.3 (residues 21–91), and AtLURE1.4 (residues 20–90) were cloned into pFastBac-1 vector, with a modified N-terminal hemolin signal peptide and 6 × His-SUMO tag. Point mutation constructs were generated by QuickChange Site-Directed Mutagenesis Kit (Strategene). All the proteins were expressed using the Bac-to-Bac baculovirus expression system (Invitrogen) in High Five cells at 22 °C. One liter of High Five cells (2.0 × 10^6 cells mL^−1) cultured in the medium from Expression Systems was infected with 25 ml recombinant baculovirus and the media was collected after 72 h of infection. Secreted LRR proteins were purified using Ni-NTA (Novagen) and size-exclusion chromatography (Hiload 200, GE Healthcare) in buffer containing 10 mM Bis-Tris pH 6.0 and 100 mM NaCl. The His-SUMO tag of the AtLURE proteins was removed by Prescission Protease at 4 °C overnight in buffer containing 25 mM Tris pH 8.0 and 150 mM NaCl. […]

MIK2^LRR [1] = assay: Gel filtration assay with MIK2^LRR; format: binding, Arabidopsis; settings: 4 °C 30 min, 10 mM Bis-Tris pH 6.0, 100 mM NaCl
From the text: as §1

[2] = tested on: prk6 pollen tubes transformed with PRK6 N239A; assay: Gelatin-beads assay, prk6 pollen tubes transformed with N239A PRK6; format: cell-based, Arabidopsis; settings: beads with 250 nM wild-type AtLURE1.2; 10–23 pollen tubes per assay, three assays
Experimental: (§2) Attraction activities of mutant AtLURE1.2 peptides were examined for semi-in-vivo pollen tubes growing through cut, pollinated pistils by gelatin-beads assay and wavy assay, [20]. For the gelatin-beads assay, pollen tubes were grown on solid pollen germination medium poured into a mold made with 1-mm thick silicone rubber and cover glasses. After hand-pollination, the topside cover glass was removed and the medium was covered with hydrated silicone oil (KF-96–100CS; Shin-Etsu). Attraction of pollen tubes toward the peptide was evaluated using AtLURE1 peptide containing gelatine beads under an inverted microscope (IX71, Olympus) equipped with a micro-manipulator (Narishige). For the AtLURE1-responsive wavy assay, the purified AtLURE1.2 peptide was added to solid pollen germination medium, which was melted at 70 °C and then cooled to a certain degree. The mixture was mixed by vortexing and poured into the mold. Pollen tubes of each genotype were grown through cut styles, as mentioned above. Each peptide (25 μM in 10 mM Bis-Tris (pH 6.0) and 100 mM NaCl) was diluted to 250 nM by cultivation medium in both assays. To examine reactivity of PRK6 mutants to AtLURE1.2, constructs for PRK6 mutants, D234A, N239A, and ΔN239I240, were generated by site-directed mutagenesis from a wild-type PRK6 vector, pPZP221-pPRK6::PRK6-mRuby2 (ref. [20]). […]

MIK2^LRR [3] = assay: In vitro pull-down with MIK2^LRR; format: binding, Arabidopsis; settings: Ni-NTA, excess AtLURE1.2, on ice 30 min, washed five times; SDS-PAGE, Coomassie blue
From the text: as §1, with “NaCl.” for “NaCl. The His-SUMO tag of the AtLURE proteins was removed by Prescission Protease at 4 °C overnight in buffer containing 25 mM Tris pH 8.0 and 150 mM NaCl.”
(§3) The purified His-tagged ectodomains of AtPRK proteins and MIK1, 2 were used to pull-down the AtLURE1.2 peptide. […] All the eluted samples were analyzed by SDS-PAGE and visualized by Coomassie blue staining. […]

[4] = tested on: prk6 pollen tubes transformed with PRK6 ΔN239I240; assay: Gelatin-beads assay, prk6 pollen tubes transformed with ΔN239I240 PRK6; format: cell-based, Arabidopsis; settings: beads with 250 nM wild-type AtLURE1.2; 10–23 pollen tubes per assay, three assays
Experimental: as §2

[5] = tested on: prk6 pollen tubes transformed with PRK6 of wild-type; assay: Wavy assay, prk6 pollen tubes transformed with wild-type PRK6; format: cell-based, Arabidopsis; settings: 250 nM wild-type AtLURE1.2 in medium
Experimental: as §2, with “assays.” for “assays. To examine reactivity of PRK6 mutants to AtLURE1.2, constructs for PRK6 mutants, D234A, N239A, and ΔN239I240, were generated by site-directed mutagenesis from a wild-type PRK6 vector, pPZP221-pPRK6::PRK6-mRuby2 (ref. [20]).”
pollen tubes. Fluorescence is from mRuby2 fused to the C-terminal of PRK6 receptors, showing that all of mutant PRK6 receptors localize normally to the plasma membrane of the pollen tube tip. […]

[6] = tested on: AtPRK^LRR proteins other than AtPRK6^LRR; assay: In vitro pull-down with other AtPRK^LRR proteins; format: binding, Arabidopsis; settings: Ni-NTA, excess AtLURE1.2, on ice 30 min, washed five times; SDS-PAGE, Coomassie blue
From the text: as §1, with “NaCl.” for “NaCl. The His-SUMO tag of the AtLURE proteins was removed by Prescission Protease at 4 °C overnight in buffer containing 25 mM Tris pH 8.0 and 150 mM NaCl.”
as §3

B1: AtLURE1.2: mature form of AtLURE1.2 (residues 20–90), defensin-like cysteine-rich peptide expressed in insect cells (protein)
chain: TLINGSSDEERTYSFSPTTSPFDPRSLNQELKIGRIGYCFDCARACMRRGKYIRTCSFERKLCRCSISDIK
modifications: left off: His6, N-terminal, cleaved | SUMO, N-terminal, cleaved
notes: mature form of AtLURE1.2 (residues 20–90), defensin-like cysteine-rich peptide expressed in insect cells
interaction in gel filtration (AtPRK3^LRR): none of the purified AtPRK3^LRR, MIK1^LRR or MIK2^LRR proteins showed detectable interaction | interaction in gel filtration (MIK2^LRR [1]): none of the purified AtPRK3^LRR, MIK1^LRR or MIK2^LRR proteins showed detectable interaction | pollen tube attraction / reactivity [2]: comparable reactivity to the wild-type PRK6 | interaction in pull-down assay (MIK2^LRR [3]): none of the other LRR proteins was found to interact | pollen tube attraction [4]: significantly lower than those in wild-type and N239A PRK6 pollen tubes; also recorded: significantly reduced | wavy and branched pollen tube behavior [5]: severe wavy and branched behavior | interaction in pull-down assay [6]: none of the other LRR proteins was found to interact
